* marks the point of attachment. Biotin = O=C1N[C@H]2[C@H](CS[C@H]2CCCCC(=O)*)N1
Key:
[1] = biological target: T1, WD40 repeat protein 5 (WDR5), human (human, UniProt P61964 1-334); assay: BLI
[2] = biological target: T1, WD40 repeat protein 5 (WDR5), human; assay: SPR

| Kd [1] | koff [1] | kon [1] | koff [2] | kon [2] | Binder |
| --- | --- | --- | --- | --- | --- |
| 170 nM | 0.0077 s⁻¹ | 44000 M⁻¹ s⁻¹ |  |  | Biotin-GGSGGSGGSINPTGCARSEPKIL-NH2 (SMILES CC[C@H](C)[C@H](NC(=O)[C@H](CCCCN)NC(=O)[C@@H]1CCCN1C(=O)[C@H](CCC(=O)O)NC(=O)[C@H](CO)NC(=O)[C@H](CCCNC(=N)N)NC(=O)[C@H](C)NC(=O)[C@H](CS)NC(=O)CNC(=O)[C@@H](NC(=O)[C@@H]1CCCN1C(=O)[C@H](CC(N)=O)NC(=O)[C@@H](NC(=O)[C@H](CO)NC(=O)CNC(=O)CNC(=O)[C@H](CO)NC(=O)CNC(=O)CNC(=O)[C@H](CO)NC(=O)CNC(=O)CNC(=O)CCCC[C@@H]1SC[C@@H]2NC(=O)N[C@@H]21)[C@@H](C)CC)[C@@H](C)O)C(=O)N[C@@H](CC(C)C)C(N)=O) [Biotinyl-(GGS)3MLL2Win-NH2] |
|  |  |  | 0.041 s⁻¹ | 210000 M⁻¹ s⁻¹ | {sulforhodamine B}-GGSGGSGGSLNPHGAARAEVYLS-NH2 [Sulforhodamine B-(GGS)3MLL4Win-NH2] |
| 1700 nM | 0.039 s⁻¹ | 23000 M⁻¹ s⁻¹ |  |  | Biotin-GGSGGSGGSLNPHGAARAEVYLS-NH2 (SMILES CC(C)C[C@H](NC(=O)[C@H](Cc1ccc(O)cc1)NC(=O)[C@@H](NC(=O)[C@H](CCC(=O)O)NC(=O)[C@H](C)NC(=O)[C@H](CCCNC(=N)N)NC(=O)[C@H](C)NC(=O)[C@H](C)NC(=O)CNC(=O)[C@H](Cc1c[nH]cn1)NC(=O)[C@@H]1CCCN1C(=O)[C@H](CC(N)=O)NC(=O)[C@H](CC(C)C)NC(=O)[C@H](CO)NC(=O)CNC(=O)CNC(=O)[C@H](CO)NC(=O)CNC(=O)CNC(=O)[C@H](CO)NC(=O)CNC(=O)CNC(=O)CCCC[C@@H]1SC[C@@H]2NC(=O)N[C@@H]21)C(C)C)C(=O)N[C@@H](CO)C(N)=O) [Biotinyl-(GGS)3MLL4Win-NH2] |
|  |  |  | 0.024 s⁻¹ | 340000 M⁻¹ s⁻¹ | {sulforhodamine B}-GGSGGSGGSEHVTGCARSEGFYT-NH2 [Sulforhodamine B-(GGS)3SETd1BWin-NH2] |
|  |  |  | 0.012 s⁻¹ | 370000 M⁻¹ s⁻¹ | {sulforhodamine B}-GGSGGSGGSINPTGCARSEPKIL-NH2 [Sulforhodamine B-(GGS)3MLL2Win-NH2] |
| 620 nM | 0.051 s⁻¹ | 82000 M⁻¹ s⁻¹ |  |  | Biotin-GGSGGSGGSEHQTGSARSEGYYP-NH2 (SMILES C[C@H](NC(=O)[C@H](CO)NC(=O)CNC(=O)[C@@H](NC(=O)[C@H](CCC(N)=O)NC(=O)[C@H](Cc1c[nH]cn1)NC(=O)[C@H](CCC(=O)O)NC(=O)[C@H](CO)NC(=O)CNC(=O)CNC(=O)[C@H](CO)NC(=O)CNC(=O)CNC(=O)[C@H](CO)NC(=O)CNC(=O)CNC(=O)CCCC[C@@H]1SC[C@@H]2NC(=O)N[C@@H]21)[C@@H](C)O)C(=O)N[C@@H](CCCNC(=N)N)C(=O)N[C@@H](CO)C(=O)N[C@@H](CCC(=O)O)C(=O)NCC(=O)N[C@@H](Cc1ccc(O)cc1)C(=O)N[C@@H](Cc1ccc(O)cc1)C(=O)N1CCC[C@H]1C(N)=O) [Biotinyl-(GGS)3SETd1AWin-NH2] |
| 250 nM | 0.017 s⁻¹ | 71000 M⁻¹ s⁻¹ |  |  | Biotin-GGSGGSGGSEHVTGCARSEGFYT-NH2 (SMILES CC(C)[C@H](NC(=O)[C@H](Cc1c[nH]cn1)NC(=O)[C@H](CCC(=O)O)NC(=O)[C@H](CO)NC(=O)CNC(=O)CNC(=O)[C@H](CO)NC(=O)CNC(=O)CNC(=O)[C@H](CO)NC(=O)CNC(=O)CNC(=O)CCCC[C@@H]1SC[C@@H]2NC(=O)N[C@@H]21)C(=O)N[C@H](C(=O)NCC(=O)N[C@@H](CS)C(=O)N[C@@H](C)C(=O)N[C@@H](CCCNC(=N)N)C(=O)N[C@@H](CO)C(=O)N[C@@H](CCC(=O)O)C(=O)NCC(=O)N[C@@H](Cc1ccccc1)C(=O)N[C@@H](Cc1ccc(O)cc1)C(=O)N[C@H](C(N)=O)[C@@H](C)O)[C@@H](C)O) [Biotinyl-(GGS)3SETd1BWin-NH2] |
| 100 nM | 0.0053 s⁻¹ | 54000 M⁻¹ s⁻¹ |  |  | Biotin-GGSGGSGGSVNPTGCARSEPKMS-NH2 (SMILES CSCC[C@H](NC(=O)[C@H](CCCCN)NC(=O)[C@@H]1CCCN1C(=O)[C@H](CCC(=O)O)NC(=O)[C@H](CO)NC(=O)[C@H](CCCNC(=N)N)NC(=O)[C@H](C)NC(=O)[C@H](CS)NC(=O)CNC(=O)[C@@H](NC(=O)[C@@H]1CCCN1C(=O)[C@H](CC(N)=O)NC(=O)[C@@H](NC(=O)[C@H](CO)NC(=O)CNC(=O)CNC(=O)[C@H](CO)NC(=O)CNC(=O)CNC(=O)[C@H](CO)NC(=O)CNC(=O)CNC(=O)CCCC[C@@H]1SC[C@@H]2NC(=O)N[C@@H]21)C(C)C)[C@@H](C)O)C(=O)N[C@@H](CO)C(N)=O) [Biotinyl-(GGS)3MLL3Win-NH2] |
|  |  |  | 0.009 s⁻¹ | 490000 M⁻¹ s⁻¹ | {sulforhodamine B}-GGSGGSGGSVNPTGCARSEPKMS-NH2 [Sulforhodamine B-(GGS)3MLL3Win-NH2] |
|  |  |  | 0.11 s⁻¹ | 310000 M⁻¹ s⁻¹ | {sulforhodamine B}-GGSGGSGGSEHQTGSARSEGYYP-NH2 [Sulforhodamine B-(GGS)3SETd1AWin-NH2] |
